Publication PMC12282945
Where a chain is given by its changes, count along the chain named. Read-outs that look alike come from different tables or passages of the source.

Assays:
Test in all cases: EMSA
[1] = biological target: T1, AcrIIA32 (Acr-Aca13 fusion) (Streptococcus uberis NZ01)
T1 chain: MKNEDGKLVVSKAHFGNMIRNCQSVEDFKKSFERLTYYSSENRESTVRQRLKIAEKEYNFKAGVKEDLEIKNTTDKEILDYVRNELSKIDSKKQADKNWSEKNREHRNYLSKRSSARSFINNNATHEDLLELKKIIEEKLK

[2] = biological target: T2, A32CTD (Aca13) (Streptococcus uberis NZ01)
T2 chain: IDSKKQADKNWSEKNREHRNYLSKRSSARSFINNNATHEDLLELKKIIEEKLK

[3] = biological target: T3, A35-n-Aca13
T3 chain: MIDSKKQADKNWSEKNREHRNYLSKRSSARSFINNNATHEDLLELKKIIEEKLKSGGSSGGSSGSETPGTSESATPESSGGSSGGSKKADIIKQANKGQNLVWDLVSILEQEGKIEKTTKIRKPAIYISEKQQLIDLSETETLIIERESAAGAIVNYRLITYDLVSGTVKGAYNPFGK

[4] = biological target: T4, A35-c-Aca13
T4 chain: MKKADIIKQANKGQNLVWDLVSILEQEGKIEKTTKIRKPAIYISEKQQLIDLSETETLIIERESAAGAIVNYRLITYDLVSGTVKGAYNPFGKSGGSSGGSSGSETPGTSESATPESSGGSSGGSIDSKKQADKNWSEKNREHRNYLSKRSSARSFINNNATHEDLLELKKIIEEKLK

[5] = biological target: T5, Aca11 (Streptococcus sp. F0441)
T5 chain: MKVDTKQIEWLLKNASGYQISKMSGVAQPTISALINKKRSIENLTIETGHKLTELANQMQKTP

[6] = biological target: T1, AcrIIA32 (Acr-Aca13 fusion)
[7] = biological target: T2, A32CTD (Aca13)
[8] = biological target: T5, Aca11

B1: Aca13-s1 WT probe (Aca13 probe) (dsDNA)
DNA 1: AGTTGATAAAAAGTGTTGACTTTTTAACGTACATGTACTATAATATAATCATAAAGAT
DNA 2: ATCTTTATGATTATATTATAGTACATGTACGTTAAAAAGTCAACACTTTTTATCAACT
- binding result [1]: binds
- binding result [2]: binds
- binding result [3]: binds
- binding result [4]: binds

B2: Aca13-s1 scIR1 probe (dsDNA)
DNA 1: B1 DNA 1 with A8C, A9C, A10C, A11C, A12C, G13T, T14A
DNA 2: B1 DNA 2 with A45T, C46A, T47G, T48G, T49G, T50G, T51G
- binding result [1]: binds
- binding result [2]: binds

B3: Aca11-s1 IR WT probe (dsDNA)
DNA 1: GTGTTGACAGTATATAACAAATGTTATATACTATACTTGTAAGATAAATAAAACAA
DNA 2: TTGTTTTATTTATCTTACAAGTATAGTATATAACATTTGTTATATACTGTCAACAC
- binding result [5]: binds

B4: Aca13-s1 scIR2 probe (dsDNA)
DNA 1: AGTTGATAAAAAGTGTTGACTTTTTAACGTACAGAGCTGTGCATATAATCATAAAGAT
DNA 2: ATCTTTATGATTATATGCACAGCTCTGTACGTTAAAAAGTCAACACTTTTTATCAACT
- binding result [6]: no binding
- binding result [7]: no binding

B5: Aca11-s1 scIR probe (dsDNA)
DNA 1: GTGTTGACAGGCGCGCCTCAATGTTATATACTATACTTGTAAGATAAATAAAACAA
DNA 2: TTGTTTTATTTATCTTACAAGTATAGTATATAACATTGAGGCGCGCCTGTCAACAC
- binding result [8]: no binding
